The results in this text go back to the nanobody polyreactivity screen of Harvey et al. (2022).

The nature of this data set: yeast display, Sf9 membrane polyspecificity reagent, FACS + sequencing; frameworks hold sequencing errors. Summed up:
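Nanobodies came from a synthetic yeast display library in Saccharomyces cerevisiae BJ5465, induced with galactose for 36–48 hours and stained for 1 hour at 4 °C with 10% biotinylated, detergent-solubilized Sf9 membrane reagent. Cells were enriched on streptavidin microbeads and then FACS-sorted, with low and high (top ~1%) gates set on anti-HA fluorescence for expression and streptavidin fluorescence for reagent binding. Each polyreactivity label reflects the gate a clone came from. Genes were amplified by colony PCR, sequenced by MiSeq 2 × 250 and filtered by CDR length.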
Take “QDPLVESGGGLVQAGGSLSLSCAASGRNIPVYAMGWYSQAPGKERELVATISYSGSSTYYADSVKGRFTNSRDNAKNTVYLEMYSLKPEDTAVYYWNADAFGPPGVQYYNWGQGTKVTVSS”: the “polyreactivity (PSR sort gate)” value is recorded as “low polyreactivity”.
In the case of “QDQHGESGGGLVQAGGSLRLSCAASGFIFWSYTMGWYRQAPGKERELVAVITGSGSTYYADSVKGRFTISRDNAKNTVYFQMNSLKPEDTALYYCATEVHVTAWTFEYEYWGQGTQVTVSS”, the “polyreactivity (PSR sort gate)” value is “low polyreactivity”.
For “QDQHVESAGGLVQAAGSLRLSCAASGSTFWYYVMGWSRQAPGQVRELVAAISTRGDSTYYADSVKGRFTISRDNANNSVYLQMYSLKPEDTAVYYCAKSRQSSGRVRFDYWGQGTQVTVSS”, the “polyreactivity (PSR sort gate)” value is “low polyreactivity”.
Consider “QDQHVESAGGLVQAGGSLRLSCAATGFTFYYNPMRWYRQAPGKERELFASITRSGGPTYYADSVKGRFTISRDIAKHTVYLQMNSLKPEDTAVYYCARRYPGGYYWGHGTQVTVSS”, for which the “polyreactivity (PSR sort gate)” value is “high polyreactivity”.
In the case of “QDQHVESGGGLDQAGGSLRLSCAASGRIFSYNTMGWYRQAPGQERELVAASSSSGGSTYYADSVKGRFTISRDNAKNTVYLQMNSLKPEDTAVYYCNAVGRFSTRREYWGQGTQVTVSS”, the “polyreactivity (PSR sort gate)” value was “high polyreactivity”.
Regarding “QDQHVESGGGLVHAGGSLRLSCAASGRIFKVYAMGWYRQPPGKERQLVASIRWNTGSTYYADSVKGRFTISRDNAKNTVYLQMNSLKPEDTAVYYCNSRGYYQGRYGYWGQGTQVTVSS”, the “polyreactivity (PSR sort gate)” value is “high polyreactivity”.
In the case of “QDQHVESGGGLVQAGCSLRLSCAASGRTFTYNAMGWYRQAPGKERELVASISSRGGSTYYADSVKGRFTISRDNAKNTVYLQMNSLKPEDTAVYYCAARWRYQLSGSRLSYGKYDYWGQGTQVTVSS”, the “polyreactivity (PSR sort gate)” value is recorded as “high polyreactivity”.
Consider “QDQHVESGGGLVQAGGSLRLSCAASGHTFRLYTMGWYRQAPGKEREFVAAIRRRTGSTYYADSVKGRFTISRDNAQNTVYLQRNSMKAEVTAVYYCNAVGDARYNYRGQGTQVTVSS”, for which the “polyreactivity (PSR sort gate)” value is given as “high polyreactivity”.
Consider “QDQHVESGGGLVQAGGSLRLSCAASGLIFYYNMGWNRQAPRKERELVAAISSSGGSTSYADSVKGRFTISRDNAKNTVYLQMNSLKPEDTAVYYCAADSYPAYLGFVGFDYWGQGTQVTVSS”, for which the “polyreactivity (PSR sort gate)” value is recorded as “low polyreactivity”.
On to “QDQHVESGGGLVQAGGSLRLSCAASGRTFGNYAMGWYRQAPGKERELVADITRRGGSTSYADSVKGRFTISRDNAKNTVYLQMNSLKPEDTAVYYCNKAADGSSHYDYWGQGTQVTVSS”, for which the “polyreactivity (PSR sort gate)” value is “low polyreactivity”.
Consider “QDQHVESGGGLVQAGGSLRLSCAASGRTFVFYAMGWYRQAPGKERELLAVIRVIGGSTKYADSVKGRFTISRDNAKNTVYLQMNSLKPVDTAVYYCAADGVVVVAAYMYYWGQGTQVTVSS”, for which the “polyreactivity (PSR sort gate)” value is listed as “low polyreactivity”.
With “QDQHVESGGGLVQAGGSLRLSCAASGRTFYRNAMGWYRQAPGKEREFVAVISVSCGSTYYADSVKGRFTISRDNAKNTVYLQMNSLKPEDTAVYYCAKRGPVRKTAYDYCGQGTQVTVSS”, the “polyreactivity (PSR sort gate)” value is “low polyreactivity”.
As for “QDQHVESGGGLVQAGGSLRLSCAASGSTFYIYARGWYRQAPGKERELVARISGSGGSTYYADSVKGRFTISRDNAKNTVYLQMNSLKPEDTAVYYCAAEDIYKYYQYYAFPYYRYDYWGQGTQVTVSS”, the “polyreactivity (PSR sort gate)” value is “low polyreactivity”.
“QDQHVESGGGLVQAGGSLRLSCAASGSTYRDNAMGWSRQAPGKERELVAAISVSGASTYYADSVKGRFTISRDNAKNTVYLQMNSLKPEDTAVYDCAKSLYQALSLSFFIFGYWGQGTQVTVSS”: the “polyreactivity (PSR sort gate)” value is given as “low polyreactivity”.
Regarding “QDQHVESGGGLVQAGGSLRLSCAASGYILRCNTMGWSRKAPGKERELVAAISSRGGITNYADSVKGRFTFSRDNAKNTVYLQMNSRKPEDTAVYYCATYWQYRYDYWGQGTQVTVSS”, the “polyreactivity (PSR sort gate)” value is recorded as “low polyreactivity”.
For the sequence “QDQHVESGGGLVQAGGSLRLSCSATGRIFTSYVMGWYRQPQGKERQLVAAITRSGGSTYYADSVKVRFTISRDTAKNTVYLQMKSLIPVDTAVYYCNALTRLQIGGEGGGYWGKGTQVTVSS”, the “polyreactivity (PSR sort gate)” value is reported as “high polyreactivity”.
For “QDQHVESGGGLVQAGGSLRLSSAASGFTFKGNAMGWYRQGPGKVMELVATITQSAGSTYYADSVKGRFSISRDNAKNTVYLQMNSLKPEDTGVYFCNADPITLYYYSWYNYWGQGTQVTVSS” the value was “low polyreactivity”; for “QDQIVESGGGLVQAGGSLRLSCAASGIIFWSYAMAWYRQAPGKERELVAAINTSGDSSYYADSVKGRFTISRDNAKNTVYLQMNSLKAEDTAVYYCAAKSSTRGDYWGQGTQVTVSS”, “low polyreactivity”; for “QDQIVESGGGYDQAGGSLRLTCAASGRIFRGNDMGSYRQAPGKERELVASISGTGGRTYYADSVKGRFTISRDNAKNTVYLQMNSLKPEDPAVYYCAVRTSLWGYYYWGHGTQVTVSS”, “high polyreactivity”.
Consider “QDQIVESGVGLVQAGGTLRLSCAASGFTFRRYVMGWYRQAPGKERELVAAISQSGGSTYYADSVKGRFTISRDNAKNTVYLQMKSLKPEDTAVYYCAATGAFWYPYDYWGQGTQVTVSS”, for which the “polyreactivity (PSR sort gate)” value was “high polyreactivity”.
As for “QDQLEESGGGLVQAGGSLRLSCAASGFTFGNNAMGWYRQAPGKERELDAAISKRGSSTYYADSVKGRFTISRDNAKNTVYLLMNSLKPDDTAVYYCAAQTPYYLLYDTGDYLGQGTQVTVSS”, the “polyreactivity (PSR sort gate)” value is recorded as “high polyreactivity”.
As to “QDQLEESGGGLVQAGGSLRLSCAASVRTFRDNAMGWSRQATGKQRQLVAAITQSGASTFYADSVKGRFTISRDNAKNSVYLQMNSLKADDTAVYYCAALRRQGRYVYGYWGQGTQVTVSS”, the “polyreactivity (PSR sort gate)” value is recorded as “high polyreactivity”.
As for “QDQLEESGGGLVQAGGSLRLSFAASGSTFYGYARGWYRPAPGKERELVAAISVNGGSTYYADSVKGRFTISRDNAKNTVYLQMNSLKPDETAVYYCAAGSGWRFDYWGQGTQVTVSS”, the “polyreactivity (PSR sort gate)” value is “low polyreactivity”.
Regarding “QDQLGESGGGIVQAGGSLRLSCASSGINFLDKAMGWYRPAQGKETELVAAYADSVKGRFTISRDNAKNTVYLQMNSLSAEDTAVYYCNAGWIRYYGFSIVSYDYWGQGTQVTVSS”, the “polyreactivity (PSR sort gate)” value is recorded as “low polyreactivity”.
As to “QDQLGESGGGLVQAGGSLRLSCAASGRTFNGYAMGWYRQAPGKVREFVAAITSNGARTYYADSVKGRFTISRDNAMNSVYLQMNSLKPEDTAVFYCAKRFARRSQRYDYWGQGTQVTVSS”, the “polyreactivity (PSR sort gate)” value is “high polyreactivity”.
In the case of “QDQLLESGGGLVQAGGSLRLSCAASGFTFYRYAMGWYRQAPGKERELVASISKSCGSTYYADSVKGRFTISRDNAKNTVYLQMNSLKPEDTAVYYCAADVDYPYGYWGQGTQVTVSS” it was “low polyreactivity”; in that of “QDQLQESGGGLEQARGSLRLSCAASGYISTFSSEMGWYRQAPGKELELVASIAPCCTTSYADSVKGRCTISRDNAKNTVYLQMNSLKPEDTSVYYCAVDYTVPASFGFRGQGTQVTVSS”, “high polyreactivity”; in that of “QDQLVDSGGGLLQAGGSLRLSCAASGFTFWQYAMGWYRQAPGKERELVAAISGSGSSTYYADSEKGRFTISRDNAKNTVYLQMISLQPEYTAVYYCATAISRYGRFYYWGQGTQVTLSS”, “high polyreactivity”.
In the case of “QDQLVDSGGGLVQAGGSLRLSCAASGRIFRGNAMGWYRQAPGKERELVAAISNSGGRTYYADSVKGRFTISRDNAKNTVYLQMNSLKPDDTAVSYCAAKAPVIFWDTRIVPGYSGYYYWGQGTQVTVSS” it was “high polyreactivity”.
In the case of “QDQLVDSGGGLVQAGGSLRLSCAASGRTFSPNTMGWYRQAPGKEREFVAAITASGDSTYYADSVKGRFTISRDNEKNTVYLQMNSLKPEDTAVYYCATDSNWYWGFNYWGQGTQVTVSS” it was “low polyreactivity”; in that of “QDQLVDSGGGLVQAGGSLRLSCAATGRSFRRYFMGWYIPAPGKERELVAAISYSGATTYYADSVKGRFTISRDYAKNNVYLQMNSLKKEDTAVYYFAATAPGDRYYWGQGTQVTVSS”, “high polyreactivity”; in that of “QDQLVDSGGGLVQAGGSLRLSCGASGSTFRKYAMGWYRQAPGQEREFVAAITWSTGTTYYADSVKGRFTISRDNAKNTVYLQMNSLKREDTAVYYCAADSQPPHDLYESIEHESWGLGTQVTVSS”, “low polyreactivity”.
Regarding “QDQLVEAGGGLVQAGGSLRLSCAASGFIFSRNAMGWYRQAPGKEGELVAAISSTGGITYYADSVKGRFSISRDNAKNTVYLQLTSLKPEDTAVYFCAAGFYGYARHTWYNYWGQGTQVTVSS”, the “polyreactivity (PSR sort gate)” value is “high polyreactivity”.
On to “QDQLVESAGGLVQAGGSLRLSCAASGFTFINNDMGWYRQAPGKERELVAAISDSDGTTYYADSVKGRFTISLDHAKNTVYLQMNSLKPEDTAGYYCAADVVPTWEDEYWRQGTQVTVSS”, for which the “polyreactivity (PSR sort gate)” value is “low polyreactivity”.
On to “QDQLVESAGGLVQAGGSLRLSCAASGSTSQSNAMGWYREAPGKDRELVAAISWSGTSTYYADSVKGRFTISRDNAKNTVYLQMNRLKPEDTAGYYCAADYIFEYDYWGQGTQVTVSS”, for which the “polyreactivity (PSR sort gate)” value is “low polyreactivity”.
As for “QDQLVESGGCLVQAGGSLPLSCAASVFTFSNNVMGWYRQAPGQVRELVATLSKSGGSTYYAVSVKVRFTISRDKAKNSVYLQMNSLNPEATEVYYCASRFGDYGRFAYWGQGTQVSVSS”, the “polyreactivity (PSR sort gate)” value was “high polyreactivity”.
Consider “QDQLVESGGCLVQAGGSLRLSCAASGGTFLYYAMGWYRQAPGKERELVAAISRGGSTHYADSVKGRFTISRDNAKNTVYLQMNSLKPEDTAVYYCAAVRSHRKRINFYDYWGQGTQVTVSS”, for which the “polyreactivity (PSR sort gate)” value is reported as “low polyreactivity”.
For “QDQLVESGGCLVQAGGSLRLSCAASGGTFRVYAMGWYRQAPGKERELVAAITGRGGSTYYADSVKGRFTISRDNAKNTVYLQMNSLKPDDTAVDYCNKEPELVEYDYWGQGTQVTVSS” the value was “low polyreactivity”; for “QDQLVESGGFLVQAGGSLRLSCAASGRTFSYYDMGWYRQAPGKERELVAAISSGGSTNYADSVKARFTISRENAKNTFYLQMNSLKPEDTGVSYCATSCIWGYGRVRWVTYYYWGQGTQVTVSS”, “low polyreactivity”.
In the case of “QDQLVESGGGFVQAGGSLRLSCAASGFIYDNEMGWYRQAPGKERELVASITSRGGNTYYADSVKGRFTISRDNAKNTVYLQMNSLKPEETAVYYCAARYYWGSYGPYGYWGQGTQLTVSS” it was “high polyreactivity”.
In the case of “QDQLVESGGGFVQAGGSLRLSCAASGFTFGSNTMGWSRQAPGKERELVAAITTSGDSTYYADSVKGRFTLSRDNAKNTVYLQMNSLKPEDTAVYDCAARRGYPRFEYWGQGTQVTVSS” it was “high polyreactivity”.
